Data published in publication PMC7247818 (2020).
Where no end group is shown, it is not given here. [ ]: non-standard residue; d: D form. The star is where a group is joined. pY = N[C@@H](Cc1ccc(OP(=O)(O)O)cc1)C(=O)O; Dansyl = CN(C)c1cccc2c(S(=O)(=O)*)cccc12

Molecular target: T1, Gab2 448-460 (Homo sapiens)
T1 chain: Dansyl-TNSEDN[pY]VPMNPG
Assay: stopped-flow FRET

Kd: 200 nM
B1: PI3K p85alpha N-SH2 N-SH2 (protein)
chain: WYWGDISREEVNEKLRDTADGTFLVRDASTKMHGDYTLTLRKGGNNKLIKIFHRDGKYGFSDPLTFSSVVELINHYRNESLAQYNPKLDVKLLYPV
